According to patent US20260098059A1 (ENDOMET BIOSCIENCES, published 2026):
Where “and” joins values, the source holds several entries; their conditions need not be identical. Equal entries are not always repeated. Bridges are numbered along the chain shown (N, C = ends). [ ]: non-standard residue; d: D form. The star is where a group is joined. N3 = N-terminal azide group, clicked with Pra; NMeW = CN[C@@H](Cc1c[nH]c2ccccc12)C(=O)O; Stearoyl = CCCCCCCCCCCCCCCCCC(=O)*; Palmitoyl = CCCCCCCCCCCCCCCC(=O)*; αMeV = CC(C)[C@](C)(N)C(=O)O; αMeS = C[C@](N)(CO)C(=O)O; Pra = C#CC[C@H](N)C(=O)O; GABA = NCCCC(=O)O; βAla = NCCC(=O)O; Sar = CNCC(=O)O

T1: β-catenin (UniProt P35222 134-665, limits assumed, biotinylated in the SPR and plate assays)
T1 sequence (looked up): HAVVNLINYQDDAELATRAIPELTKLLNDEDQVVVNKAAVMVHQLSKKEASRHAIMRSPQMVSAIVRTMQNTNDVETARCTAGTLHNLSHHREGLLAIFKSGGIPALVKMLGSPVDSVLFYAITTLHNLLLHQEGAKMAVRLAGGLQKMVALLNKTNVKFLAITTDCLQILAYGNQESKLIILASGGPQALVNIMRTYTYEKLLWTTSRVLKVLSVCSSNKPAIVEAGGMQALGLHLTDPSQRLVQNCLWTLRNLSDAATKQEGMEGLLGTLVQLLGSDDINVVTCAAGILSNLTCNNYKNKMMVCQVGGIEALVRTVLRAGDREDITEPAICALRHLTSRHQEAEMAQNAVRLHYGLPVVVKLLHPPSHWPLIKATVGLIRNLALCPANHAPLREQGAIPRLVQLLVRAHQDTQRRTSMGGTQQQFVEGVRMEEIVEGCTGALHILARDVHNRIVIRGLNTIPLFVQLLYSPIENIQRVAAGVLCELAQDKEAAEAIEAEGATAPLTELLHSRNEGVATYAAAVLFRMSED

B1: SEQ ID NO: 205 (peptide)
peptide: KWXLISAWD
HELM: PEPTIDE1{K.W.[CC(C)(C)[C@H](N[*:1])C(=O)[*:2]].L.I.S.A.W.D}$PEPTIDE1,PEPTIDE1,1:R3-9:R3$$$V2.0
SMILES: CC[C@H](C)[C@@H]1NC(=O)[C@H](CC(C)C)NC(=O)[C@H](C(C)(C)C)NC(=O)[C@H](Cc2c[nH]c3ccccc23)NC(=O)[C@@H](N)CCCCNC(=O)C[C@@H](C(=O)O)NC(=O)[C@H](Cc2c[nH]c3ccccc23)NC(=O)[C@H](C)NC(=O)[C@H](CO)NC1=O
B2: SEQ ID NO: 181 (peptide)
peptide: KWFLICEWG
HELM: PEPTIDE1{K.W.F.L.I.C.E.W.G}$PEPTIDE1,PEPTIDE1,1:R3-7:R3$$$V2.0
SMILES: CC[C@H](C)[C@@H]1NC(=O)[C@H](CC(C)C)NC(=O)[C@H](Cc2ccccc2)NC(=O)[C@H](Cc2c[nH]c3ccccc23)NC(=O)[C@@H](N)CCCCNC(=O)CC[C@@H](C(=O)N[C@@H](Cc2c[nH]c3ccccc23)C(=O)NCC(=O)O)NC(=O)[C@H](CS)NC1=O
B3: SEQ ID NO: 395 (peptide)
peptide: {Stearoyl-GABA}-W[NMeW]E[αMeS]ILDEH[αMeV]QRVW-OH
B4: SEQ ID NO: 174 (peptide)
peptide: KWFLICFWEG
modifications: cyclo-H2N-K(G*)WFLICFWE*G-COOH
B5: SEQ ID NO: 398 (peptide)
peptide: Palmitoyl-GW[NMeW]E[αMeS]ILDEH[αMeV]QRVW-OH
B6: SEQ ID NO: 396 (peptide)
peptide: Palmitoyl-W[NMeW]E[αMeS]ILDEH[αMeV]QRVWG-OH
B7: SEQ ID NO: 180 (peptide)
peptide: KMWFLICEWG
HELM: PEPTIDE1{K.M.W.F.L.I.C.E.W.G}$PEPTIDE1,PEPTIDE1,1:R3-8:R3$$$V2.0
SMILES: CC[C@H](C)[C@@H]1NC(=O)[C@H](CC(C)C)NC(=O)[C@H](Cc2ccccc2)NC(=O)[C@H](Cc2c[nH]c3ccccc23)NC(=O)[C@H](CCSC)NC(=O)[C@@H](N)CCCCNC(=O)CC[C@@H](C(=O)N[C@@H](Cc2c[nH]c3ccccc23)C(=O)NCC(=O)O)NC(=O)[C@H](CS)NC1=O
B8: SEQ ID NO: 178 (peptide)
peptide: DWFLICAWKG
HELM: PEPTIDE1{D.W.F.L.I.C.A.W.K.G}$PEPTIDE1,PEPTIDE1,1:R3-9:R3$$$V2.0
SMILES: CC[C@H](C)[C@@H]1NC(=O)[C@H](CC(C)C)NC(=O)[C@H](Cc2ccccc2)NC(=O)[C@H](Cc2c[nH]c3ccccc23)NC(=O)[C@@H](N)CC(=O)NCCCC[C@@H](C(=O)NCC(=O)O)NC(=O)[C@H](Cc2c[nH]c3ccccc23)NC(=O)[C@H](C)NC(=O)[C@H](CS)NC1=O
B9: SEQ ID NO: 57 (peptide)
peptide: H-MSRMWFLISFWEG-OH
B10: SEQ ID NO: 58 (peptide)
peptide: H-MSRMWFLISFWRG-OH
B11: SEQ ID NO: 391 (peptide)
peptide: Stearoyl-[βAla]W[NMeW]E[αMeS]ILDEH[αMeV]QRVWG-OH
SMILES: CCCCCCCCCCCCCCCCCC(=O)NCCC(=O)N[C@@H](Cc1c[nH]c2ccccc12)C(=O)N(C)[C@@H](Cc1c[nH]c2ccccc12)C(=O)N[C@@H](CCC(=O)O)C(=O)N[C@@](C)(CO)C(=O)N[C@H](C(=O)N[C@@H](CC(C)C)C(=O)N[C@@H](CC(=O)O)C(=O)N[C@@H](CCC(=O)O)C(=O)N[C@@H](Cc1c[nH]cn1)C(=O)N[C@](C)(C(=O)N[C@@H](CCC(N)=O)C(=O)N[C@@H](CCCNC(=N)N)C(=O)N[C@H](C(=O)N[C@@H](Cc1c[nH]c2ccccc12)C(=O)NCC(=O)O)C(C)C)C(C)C)[C@@H](C)CC
B12: SEQ ID NO: 208 (peptide)
peptide: KWFEISFWG
HELM: PEPTIDE1{K.W.F.E.I.S.F.W.G}$PEPTIDE1,PEPTIDE1,1:R3-4:R3$$$V2.0
SMILES: CC[C@H](C)[C@H](NC(=O)[C@@H]1CCC(=O)NCCCC[C@H](N)C(=O)N[C@@H](Cc2c[nH]c3ccccc23)C(=O)N[C@@H](Cc2ccccc2)C(=O)N1)C(=O)N[C@@H](CO)C(=O)N[C@@H](Cc1ccccc1)C(=O)N[C@@H](Cc1c[nH]c2ccccc12)C(=O)NCC(=O)O
B13: SEQ ID NO: 139 (peptide)
peptide: H-[2Aoc]WFLICFWG-OH
B14: SEQ ID NO: 173 (peptide)
peptide: KWFLICEWG
HELM: PEPTIDE1{K.W.F.L.I.C.E.W.G}$PEPTIDE1,PEPTIDE1,1:R3-7:R3$$$V2.0
SMILES: CC[C@H](C)[C@@H]1NC(=O)[C@H](CC(C)C)NC(=O)[C@H](Cc2ccccc2)NC(=O)[C@H](Cc2c[nH]c3ccccc23)NC(=O)[C@@H](N)CCCCNC(=O)CC[C@@H](C(=O)N[C@@H](Cc2c[nH]c3ccccc23)C(=O)NCC(=O)O)NC(=O)[C@H](CS)NC1=O
B15: SEQ ID NO: 177 (peptide)
peptide: DMWFLICFWKG
HELM: PEPTIDE1{D.M.W.F.L.I.C.F.W.K.G}$PEPTIDE1,PEPTIDE1,1:R3-10:R3$$$V2.0
SMILES: CC[C@H](C)[C@@H]1NC(=O)[C@H](CC(C)C)NC(=O)[C@H](Cc2ccccc2)NC(=O)[C@H](Cc2c[nH]c3ccccc23)NC(=O)[C@H](CCSC)NC(=O)[C@@H](N)CC(=O)NCCCC[C@@H](C(=O)NCC(=O)O)NC(=O)[C@H](Cc2c[nH]c3ccccc23)NC(=O)[C@H](Cc2ccccc2)NC(=O)[C@H](CS)NC1=O
B16: SEQ ID NO: 33 (peptide)
peptide: N3-WESILDEHVQRVW[Pra]-NH2
modifications: triazole N-14
B17: SEQ ID NO: 166 (peptide)
peptide: H-MIRMWFLICAWG-OH
B18: SEQ ID NO: 206 (peptide)
peptide: KWLLISAWD
HELM: PEPTIDE1{K.W.L.L.I.S.A.W.D}$PEPTIDE1,PEPTIDE1,1:R3-9:R3$$$V2.0
SMILES: CC[C@H](C)[C@@H]1NC(=O)[C@H](CC(C)C)NC(=O)[C@H](CC(C)C)NC(=O)[C@H](Cc2c[nH]c3ccccc23)NC(=O)[C@@H](N)CCCCNC(=O)C[C@@H](C(=O)O)NC(=O)[C@H](Cc2c[nH]c3ccccc23)NC(=O)[C@H](C)NC(=O)[C@H](CO)NC1=O
B19: SEQ ID NO: 211 (peptide)
peptide: H-MWFLICAWG-OH
B20: SEQ ID NO: 213 (peptide)
peptide: H-MWFLICFW[Sar]-OH
B21: SEQ ID NO: 222 (peptide)
peptide: Ac-MWILISFWG-OMe
B22: SEQ ID NO: 210 (peptide)
peptide: H-MAFLISFWG-OH
B23: SEQ ID NO: 390 (peptide)
peptide: Stearoyl-W[NMeW]E[αMeS]ILDEH[αMeV]QRVWG-OH
B24: SEQ ID NO: 397 (peptide)
peptide: Palmitoyl-W[NMeW]E[αMeS]ILDEH[αMeV]QRVW-OH
B25: SEQ ID NO: 394 (peptide)
peptide: Stearoyl-[βAla]W[NMeW]E[αMeS]ILDEH[αMeV]QRVW-OH
SMILES: CCCCCCCCCCCCCCCCCC(=O)NCCC(=O)N[C@@H](Cc1c[nH]c2ccccc12)C(=O)N(C)[C@@H](Cc1c[nH]c2ccccc12)C(=O)N[C@@H](CCC(=O)O)C(=O)N[C@@](C)(CO)C(=O)N[C@H](C(=O)N[C@@H](CC(C)C)C(=O)N[C@@H](CC(=O)O)C(=O)N[C@@H](CCC(=O)O)C(=O)N[C@@H](Cc1c[nH]cn1)C(=O)N[C@](C)(C(=O)N[C@@H](CCC(N)=O)C(=O)N[C@@H](CCCNC(=N)N)C(=O)N[C@H](C(=O)N[C@@H](Cc1c[nH]c2ccccc12)C(=O)O)C(C)C)C(C)C)[C@@H](C)CC
B26: SEQ ID NO: 31 (peptide)
peptide: KMSRMWYLISFW
HELM: PEPTIDE1{K.M.S.R.M.W.Y.L.I.S.F.W}$PEPTIDE1,PEPTIDE1,1:R3-12:R2$$$V2.0
SMILES: CC[C@H](C)[C@@H]1NC(=O)[C@H](CC(C)C)NC(=O)[C@H](Cc2ccc(O)cc2)NC(=O)[C@H](Cc2c[nH]c3ccccc23)NC(=O)[C@H](CCSC)NC(=O)[C@H](CCCNC(=N)N)NC(=O)[C@H](CO)NC(=O)[C@H](CCSC)NC(=O)[C@@H](N)CCCCNC(=O)[C@H](Cc2c[nH]c3ccccc23)NC(=O)[C@H](Cc2ccccc2)NC(=O)[C@H](CO)NC1=O
B27: SEQ ID NO: 392 (peptide)
peptide: {Stearoyl-GABA}-W[NMeW]E[αMeS]ILDEH[αMeV]QRVWG-OH

Molecular target: T1, β-catenin
Assay: cell-based or functional assay

| Wnt Reporter EC50 | Proliferation IC50, Wnt dependent cells | Proliferation IC50, Endo cells | Binder |
| --- | --- | --- | --- |
| > 30 µM | – | – | B1 |
| > 30 µM | – | – | B2 |
| > 7.5 µM and ≤ 15 µM | 6.8 µM | – | B3 |
| > 7.5 µM and ≤ 15 µM | – | – | B4 |
| > 7.5 µM and ≤ 15 µM | – | – | B5 |
| > 7.5 µM and ≤ 15 µM | 2.9 µM | 15 µM | B6 |
| ≤ 7.5 µM | – | – | B7 |
| ≤ 7.5 µM | – | – | B8 |
| ≤ 7.5 µM | – | – | B9 |
| > 22.5 µM and ≤ 30 µM | – | – | B10 |
| ≤ 7.5 µM | 4.8 µM | – | B11 |
| > 7.5 µM and ≤ 15 µM | – | – | B12 |
| > 30 µM | – | – | B13 |
| > 30 µM | – | – | B14 |
| > 7.5 µM and ≤ 15 µM | – | – | B15 |
| > 30 µM | – | – | B16 |
| > 30 µM | – | – | B17 |
| > 15 µM and ≤ 22.5 µM | – | – | B18 |
| ≤ 7.5 µM | – | – | B19 |
| ≤ 7.5 µM | – | – | B20 |
| > 7.5 µM and ≤ 15 µM | – | – | B21 |
| ≤ 7.5 µM | – | – | B22 |
| > 7.5 µM and ≤ 15 µM | 4.7 µM | – | B23 |
| > 7.5 µM and ≤ 15 µM | – | – | B24 |
| > 7.5 µM and ≤ 15 µM | – | – | B25 |
| > 30 µM | – | – | B26 |
| ≤ 7.5 µM | – | – | B27 |
